The values below come from publication PMC4339303.

Holding throughout (test): proximity ligation
The target in assay [1] is double-mutant V5-RTEL1^C1252A/C1255A (mouse) (mouse).
In assay [2] the target is full-length WT V5-RTEL1 (mouse) (mouse).
Assay [3] concerns the target single-mutant V5-RTEL1^R1237H (mouse) (mouse).

full-length WT V5-RTEL1 (mouse) (mouse), sequence (Q0VGM9 whole entry): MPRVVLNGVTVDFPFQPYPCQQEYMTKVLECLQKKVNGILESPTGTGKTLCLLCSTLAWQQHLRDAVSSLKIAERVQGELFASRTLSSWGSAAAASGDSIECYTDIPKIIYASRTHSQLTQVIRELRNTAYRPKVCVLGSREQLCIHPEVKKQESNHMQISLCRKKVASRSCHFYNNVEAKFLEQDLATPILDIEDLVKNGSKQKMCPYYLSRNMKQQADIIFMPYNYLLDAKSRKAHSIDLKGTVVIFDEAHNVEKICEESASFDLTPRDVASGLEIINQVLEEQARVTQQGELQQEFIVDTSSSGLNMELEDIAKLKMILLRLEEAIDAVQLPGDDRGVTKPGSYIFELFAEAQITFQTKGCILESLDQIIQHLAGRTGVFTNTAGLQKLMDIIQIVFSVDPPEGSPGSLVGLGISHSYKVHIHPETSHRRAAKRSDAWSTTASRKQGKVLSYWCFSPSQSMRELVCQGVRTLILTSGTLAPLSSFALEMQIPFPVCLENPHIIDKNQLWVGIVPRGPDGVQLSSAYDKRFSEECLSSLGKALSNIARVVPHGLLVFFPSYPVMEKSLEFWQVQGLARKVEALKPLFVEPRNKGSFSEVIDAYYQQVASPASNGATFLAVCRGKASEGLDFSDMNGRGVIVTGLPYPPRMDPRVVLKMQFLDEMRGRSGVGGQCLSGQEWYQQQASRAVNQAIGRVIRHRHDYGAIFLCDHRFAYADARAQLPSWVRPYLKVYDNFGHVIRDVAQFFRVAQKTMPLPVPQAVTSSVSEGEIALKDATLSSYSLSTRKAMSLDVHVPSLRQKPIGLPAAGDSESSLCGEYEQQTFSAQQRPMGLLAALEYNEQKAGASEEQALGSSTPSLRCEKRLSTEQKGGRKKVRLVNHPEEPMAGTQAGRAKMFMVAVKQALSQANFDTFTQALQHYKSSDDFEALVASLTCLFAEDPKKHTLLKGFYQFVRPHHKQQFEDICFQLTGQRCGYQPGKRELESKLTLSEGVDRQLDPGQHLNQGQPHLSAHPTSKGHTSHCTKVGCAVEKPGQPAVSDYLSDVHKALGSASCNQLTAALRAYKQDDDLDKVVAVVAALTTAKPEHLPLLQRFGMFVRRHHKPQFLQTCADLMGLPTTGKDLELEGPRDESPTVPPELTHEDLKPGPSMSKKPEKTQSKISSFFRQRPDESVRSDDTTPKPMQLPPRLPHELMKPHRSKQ

Consider “endogenous PCNA (proliferating cell nuclear antigen) (from UniProt P17918 1-261) (natural protein)”, for which the results for the PLA foci per nucleus (PLA foci per nucleus) in assay [1] and in assay [3] were 11.6 and 13.4, respectively. Besides, in assay [2], the PLA foci per nucleus (foci per nucleus) was determined as 11.5.
